Measurements from article PMC10925351 (bioRxiv, 2025).
Residue numbers refer to the chain shown, from its start. Names may count otherwise.

B1: Cdk1 (Cdc28), T169-phosphorylated, from a GST-TEV-Cdk1 fusion (enzyme)
chain: not shown
modifications: phosphothreonine at T169 (by Cak1)
B2: Cks1 (wild-type) (natural protein)
chain: MYHHYHAFQGRKLTDQERARVLEFQDSIHYSPRYSDDNYEYRHVMLPKAMLKVIPSDYFNSEVGTLRILTEDEWRGLGITQSLGWEHYECHAPEPHILLFKRPLNYEAELRAATAAAQQQQQQQQQQQQQQQQHQTQSISNDMQVPPQIS
B3: Cks1 mutant (R33E, S82E, R102A) (natural protein)
chain: B2 chain with R33E, S82E, R102A

Assays:
Assay in all cases: reconstitution of a complex by mixing purified proteins
[1] = molecular target: T1, Clb2 (wild-type), 6xHis-tagged (S. cerevisiae, UniProt P24869 1-491)
T1 sequence: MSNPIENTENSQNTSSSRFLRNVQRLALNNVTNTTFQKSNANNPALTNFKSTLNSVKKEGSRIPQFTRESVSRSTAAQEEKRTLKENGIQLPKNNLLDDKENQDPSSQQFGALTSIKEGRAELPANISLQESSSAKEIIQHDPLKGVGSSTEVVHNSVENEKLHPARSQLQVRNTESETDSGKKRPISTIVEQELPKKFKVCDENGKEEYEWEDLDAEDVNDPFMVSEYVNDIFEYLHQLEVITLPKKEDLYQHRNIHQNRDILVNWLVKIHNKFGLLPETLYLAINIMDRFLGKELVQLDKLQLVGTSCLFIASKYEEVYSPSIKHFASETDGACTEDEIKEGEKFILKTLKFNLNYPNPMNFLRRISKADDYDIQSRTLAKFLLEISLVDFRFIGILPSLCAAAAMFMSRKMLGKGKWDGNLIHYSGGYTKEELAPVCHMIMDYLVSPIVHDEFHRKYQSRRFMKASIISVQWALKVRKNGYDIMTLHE

[2] = molecular target: T2, Clb2-pp mutant (R366A, R379A, K383A), 6xHis-tagged (S. cerevisiae, UniProt P24869 1-491, R366A | R379A | K383A)
T2 sequence: T1 sequence with R366A, R379A, K383A

[3] = molecular target: Clb2-Cdk1 complex (wild-type Clb2) (S. cerevisiae, UniProt P24869;P00546, phosphothreonine at T169 (by Cak1))
Clb2-Cdk1 complex (wild-type Clb2), sequence (P00546 whole entry, one chain of several): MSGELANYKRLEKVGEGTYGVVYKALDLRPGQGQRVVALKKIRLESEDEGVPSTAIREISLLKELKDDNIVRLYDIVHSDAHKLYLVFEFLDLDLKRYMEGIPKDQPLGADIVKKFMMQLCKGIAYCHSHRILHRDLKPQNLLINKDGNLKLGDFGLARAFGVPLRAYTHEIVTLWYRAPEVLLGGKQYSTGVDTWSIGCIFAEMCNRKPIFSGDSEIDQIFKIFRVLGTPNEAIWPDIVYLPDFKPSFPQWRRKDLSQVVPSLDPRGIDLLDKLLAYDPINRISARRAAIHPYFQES

Row | Binder | binding result [1] | binding result [2] | binding result [3]
1 | B1 | binds | binds | –
2 | B2 | – | – | binds
3 | B3 | – | – | binds
